This passage reports REAP Off-Targets (number), EC50 and Kd results from patent US20230416942A1 (YALE UNIVERSITY, published 2023).

For one test, the target named is REAP Off-Targets. Nature of the test: REAP, nanobody-Fc on yeast-displayed human antigen library.
Test [1] has as its target T1, TNFSF18 (recombinant human protein) (human, UniProt Q9UNG2 52-177, limits assumed).
T1 construct: Recombinant human protein immobilized at 5 ug/mL for ELISA
T1 sequence (looked up): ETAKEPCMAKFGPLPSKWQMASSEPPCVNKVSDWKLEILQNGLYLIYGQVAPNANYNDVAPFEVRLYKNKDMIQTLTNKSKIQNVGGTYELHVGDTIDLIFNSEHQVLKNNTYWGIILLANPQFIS
Briefly: ELISA, recombinant human protein coated, nanobody-Fc titrated, anti-human IgG HRP. On the procedure: (§1) Recombinant human protein was diluted in PBS to a final concentration of 5 μg/mL and was immobilized on 96-well flat bottom MaxiSorp plates (Thermo Fisher Scientific) and placed at 4° C. overnight. Plates were washed three times with 225 μL ELISA wash buffer (PBS with 0.05% Tween 20) and 200 μL ELISA blocking buffer (PBS with 1% Casein) was added to the well. Plates were incubated with shaking for 2 hours at room temperature. ELISA blocking buffer was removed from the wells and appropriate dilutions of recombinant nanobodies in 100 μL ELISA blocking buffer was added to each well. Plates were incubated with shaking for 2 hours at room temperature. Plates were washed 3 times with 225 μL ELISA wash buffer and 1:5000 goat anti-human IgG HRP (Millipore Sigma) in 100 μL ELISA blocking buffer was added to the wells. Plates were incubated with shaking for 1 hour at room temperature. Plates were washed 6 times with 225 μL ELISA wash buffer. 50 μL TMB substrate (BD Biosciences) was added to the wells and plates were incubated for 15 minutes in the dark at room temperature. 50 μL 1 M sulfuric acid was added to the wells and absorbance at 450 nm was measured in a Synergy HTX Multi-Mode Microplate Reader (BioTek).

The next test has as its target T2, CD3D (human, UniProt P04234 22-105).
T2 construct: Recombinant human protein in ELISA
Briefly: ELISA, plate-coated recombinant human protein, nanobody-Fc. On the procedure: as §1
(In an ELISA, binding on a coated surface is turned into a signal by an enzyme label.)

The target of a further test is T3, TIGIT (human, UniProt Q495A1 22-141).
T3 construct: Recombinant human protein in ELISA
T3 sequence (looked up): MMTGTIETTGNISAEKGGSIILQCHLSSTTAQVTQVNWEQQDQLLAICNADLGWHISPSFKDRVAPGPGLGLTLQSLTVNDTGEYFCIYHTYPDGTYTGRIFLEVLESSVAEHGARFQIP
The description is as above. On the procedure: as §1

In another test the target is T4, CEACAM4 (human, UniProt O75871 36-155, limits assumed).
T4 construct: Recombinant human protein in ELISA
T4 sequence (looked up): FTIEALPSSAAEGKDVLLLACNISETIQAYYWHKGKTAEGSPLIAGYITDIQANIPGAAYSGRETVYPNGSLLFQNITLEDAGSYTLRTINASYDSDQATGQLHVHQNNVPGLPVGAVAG
Described as above. On the procedure: as §1

Another test concerns the target T5, IL21 (human, UniProt Q9HBE4 32-162, limits assumed).
T5 construct: Recombinant human protein in ELISA
The description is as above. How it is done:
as §1

Test [2] addresses T6, TNF (recombinant human protein) (human, UniProt P01375 77-233).
T6 construct: Recombinant human protein immobilized at 5 ug/mL for ELISA
Briefly: ELISA, recombinant human protein coated, nanobody-Fc titrated, anti-human IgG HRP. On the procedure: as §1

The target of test [3] is T7, IL17A (human, UniProt Q16552 24-155).
T7 construct: Recombinant human protein in ELISA and BLI
T7 sequence (looked up): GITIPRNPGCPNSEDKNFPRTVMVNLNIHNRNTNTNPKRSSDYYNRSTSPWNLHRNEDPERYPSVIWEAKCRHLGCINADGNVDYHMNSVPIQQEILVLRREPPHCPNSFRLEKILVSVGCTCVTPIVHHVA
Nature of the test: ELISA, plate-coated recombinant human protein, nanobody-Fc. How it is done:
as §1

Test [4] deals with T7, IL17A. Briefly: BLI, AHC sensor, nanobody-Fc captured, antigen in solution. The source says:
Octet RED96 System (ForteBio) was used to perform kinetic measurement of nanobody binding to antigens. For Anti-Penta-His Biosensors (HIS1K), his-tagged recombinant human proteins were first immobilized onto the biosensors, and recombinant nanobodies fused with human IgG1 were applied to detect binding. For Anti-Human IgG Fc Capture Biosensors (AHC), recombinant nanobodies fused with human IgG1 were first loaded onto the biosensors, and probes were dipped in serial dilutions of recombinant human antigens.
For orientation: Biolayer interferometry detects binding as a change in optical thickness at a sensor tip.

The next test concerns the target T8, IL13 (human, UniProt P35225 35-146, limits assumed).
T8 construct: Recombinant human protein in ELISA
Briefly: ELISA, plate-coated recombinant human protein, nanobody-Fc. On the procedure: as §1

The target of the next test is T9, CCL16 (human, UniProt O15467 24-120).
T9 construct: Recombinant human protein in ELISA and BLI
T9 sequence (looked up): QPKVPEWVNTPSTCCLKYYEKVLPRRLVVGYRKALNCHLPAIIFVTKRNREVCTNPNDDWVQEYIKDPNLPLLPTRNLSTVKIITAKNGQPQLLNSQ
The description is as above. On the procedure: as §1

T5 sequence (Q9HBE4 32-162 limits assumed): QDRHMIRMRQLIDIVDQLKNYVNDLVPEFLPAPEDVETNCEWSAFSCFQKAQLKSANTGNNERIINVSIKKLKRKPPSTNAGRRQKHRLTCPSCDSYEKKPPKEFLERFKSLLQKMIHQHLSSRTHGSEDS
T2 sequence (P04234 22-105 limits assumed): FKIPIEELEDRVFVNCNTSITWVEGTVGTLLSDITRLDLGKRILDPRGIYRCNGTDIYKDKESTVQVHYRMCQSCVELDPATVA
T6 sequence (P01375 77-233 limits assumed): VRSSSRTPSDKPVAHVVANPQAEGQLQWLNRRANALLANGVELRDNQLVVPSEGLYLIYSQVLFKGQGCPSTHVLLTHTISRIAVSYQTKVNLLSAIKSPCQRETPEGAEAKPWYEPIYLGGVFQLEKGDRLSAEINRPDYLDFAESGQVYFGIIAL
T8 sequence (P35225 35-146 limits assumed): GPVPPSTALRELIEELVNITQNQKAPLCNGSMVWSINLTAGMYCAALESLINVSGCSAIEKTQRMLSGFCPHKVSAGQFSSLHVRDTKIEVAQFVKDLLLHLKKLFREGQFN

B1: TNFSF18_Nb96 (Fc fusion)
chain: QVQLQESGGGLVQAGGSLRLSCAASGNISWVYWMGWYRQAPGKERELVAGIATGGSTNYADSVKGRFTISRDNAKNTVYLQMNSLKPEDTAVYYCAVVASNGSRFWYWGQGTQVTVSS
notes: Nanobody expressed as an Fc fusion protein (fused with human IgG1) in Expi293 cells; not shown: human IgG1 Fc; nanobodies expressed as Fc fusion from vector pCER243
On to B1, for which the REAP Off-Targets (number) with REAP Off-Targets worked out at 6 off-targets. Further, the EC50 in [1] stood at 4.07 nM.

B2: CD3D_Nb2.33 (Fc fusion)
chain: QVQLQESGGGLVQAGGSLRLSCAASGSIFYAEYMGWYRQAPGKEREFVAAITAGSTTYYADSVKGRFTISRDNAKNTVYLQMNSLKPEDTAVYYCAADGYYYGIEFTYYEYWGQGTQVTVSS
notes: Nanobody expressed and tested as Fc fusion (human IgG1); not shown: human IgG1 Fc (vector pCER243)
Consider B2, for which the EC50 with CD3D worked out at 8.22 nM.

B3: TIGIT_Nb2.82 (Fc fusion)
chain: QVQLQESGGGLVQAGGSLRLSCAASGTISVVQDMGWYRQAPGKERELVAGIAKGGNTYYADSVKGRFTISRDNAKNTVYLQMNSLKPEDTAVYYCAASPIPFSYAYPAYHYWGQGTQVTVSS
notes: as for B2
For B3, in the test with TIGIT, the EC50 is 12.8 nM.

B4: CEACAM4_Nb40 (Fc fusion)
chain: QVQLQESGGGLVQAGGSLRLSCAASGTISPGYGMGWYRQAPGKEREFVATIAFGSSTYYADSVKGRFTISRDNAKNTVYLQMNSLKPEDTAVYYCAVAIYIPYFFRYWGQGTQVTVSS
notes: as for B2
As to B4, in the test with CEACAM4, the EC50 was 14.5 nM.

B5: TIGIT_Nb2.84 (Fc fusion)
chain: QVQLQESGGGLVQAGGSLRLSCAASGNISYVRWMGWYRQAPGKERELVAGIGVGGITNYADSVKGRFTISRDNAKNTVYLQMNSLKPEDTAVYYCAATDVDWILYRYWGQGTQVTVSS
notes: as for B2
On to B5, for which the EC50 in the test with TIGIT came to 483 nM.

B6: IL21_Nb2.28 (Fc fusion)
chain: QVQLQESGGGLVQAGGSLRLSCAASGSISNTYVMGWYRQAPGKERELVAAIGHGGTTYYADSVKGRFTISRDNAKNTVYLQMNSLKPEDTAVYYCAVYLSRVRKFYYWGQGTQVTVSS
notes: as for B2
Regarding B6, the EC50 with IL21 turned out to be 3.14 nM.

B7: TNF_Nb109 (Fc fusion)
chain: QVQLQESGGGLVQAGGSLRLSCAASGYISGEWFMGWYRQAPGKERELVAGISRGSTTYYADSVKGRFTISRDNAKNTVYLQMNSLKPEDTAVYYCAVYLTHKGYDGADGVVHHRYWGQGTQVTVSS
notes: as for B1
B7 yielded an REAP Off-Targets (number) with REAP Off-Targets of 7 off-targets. In addition, in [2], the EC50 was 23.8 nM.

B8: TNFSF18_Nb98 (Fc fusion)
chain: QVQLQESGGGLVQAGGSLRLSCAASGSIFYVIAMGWYRQAPGKERELVATITAGTNTYYADSVKGRFTISRDNAKNTVYLQMNSLKPEDTAVYYCAVYALQQDVYDRSHAYWGQGTQVTVSS
notes: as for B1
As to B8, in the test with REAP Off-Targets, the REAP Off-Targets (number) was 4 off-targets. The EC50 in test [1] stood at 6.05 nM.

B9: CEACAM4_Nb41 (Fc fusion)
chain: QVQLQESGGGLVQAGGSLRLSCAASGTISRSSIMGWYRQAPGKEREFVAGISYGSTTYYADSVKGRFTISRDNAKNTVYLQMNSLKPEDTAVYYCAVRDLYVWDHAYWGQGTQVTVSS
notes: as for B2
As to B9, in the test with CEACAM4, the EC50 worked out at 32.7 nM.

B10: CD3D_Nb2.34 (Fc fusion)
chain: QVQLQESGGGLVQAGGSLRLSCAASGTISTLDYMGWYRQAPGKEREFVAAINYGSNTYYADSVKGRFTISRDNAKNTVYLQMNSLKPEDTAVYYCAAADVTRPAYDYWGQGTQVTVSS
notes: as for B2
In the case of B10, the EC50 in the test with CD3D was 0.575 nM.

B11: TNF_Nb105 (Fc fusion)
chain: QVQLQESGGGLVQAGGSLRLSCAASGTISVTYFMGWYRQAPGKERELVAGIGTGANTYYADSVKGRFTISRDNAKNTVYLQMNSLKPEDTAVYYCAAYIGAPVYGDGQSRNKAKVYDYWGQGTQVTVSS
notes: as for B1
B11 yielded an REAP Off-Targets (number) with REAP Off-Targets of 2 off-targets. The EC50 in test [2] stood at 5.57 nM.

B12: CD3D_Nb2.35 (Fc fusion)
chain: QVQLQESGGGLVQAGGSLRLSCAASGTIFAYWYMGWYRQAPGKEREFVAAIGDGSSTYYADSVKGRFTISRDNAKNTVYLQMNSLKPEDTAVYYCAAEAPGYGHTYWGQGTQVTVSS
notes: as for B2
On to B12, for which, in the test with CD3D, the EC50 worked out at 1.72 nM.

B13: IL17A_Nb2.90 (Fc fusion)
chain: QVQLQESGGGLVQAGGSLRLSCAASGYISLRFYMGWYRQAPGKEREFVATIDDGSSTYYADSVKGRFTISRDNAKNTVYLQMNSLKPEDTAVYYCAVTAQTYYDHVYWGQGTQVTVSS
notes: as for B2
As for B13, the EC50 with IL17A [3] came to 0.249 nM. This molecule yielded a Kd in the test with IL17A [4] of 0.977 nM.

B14: IL13_Nb2.42 (Fc fusion)
chain: QVQLQESGGGLVQAGGSLRLSCAASGTISATDFMGWYRQAPGKERELVAAINHGGSTYYADSVKGRFTISRDNAKNTVYLQMNSLKPEDTAVYYCAAARDDYPWHDYWGQGTQVTVSS
notes: as for B2
As for B14, the half-maximal effective concentration (EC50) with IL13 is 38.4 nM.

B15: IL21_Nb2.30 (Fc fusion)
chain: QVQLQESGGGLVQAGGSLRLSCAASGTIFRETVMGWYRQAPGKERELVAAIDDGTSTYYADSVKGRFTISRDNAKNTVYLQMNSLKPEDTAVYYCAARASYTYGRLRFRYWGQGTQVTVSS
notes: as for B2
Regarding B15, in the test with IL21, the EC50 is 7.16 nM.

B16: IL21 Nb2.29 (Fc fusion)
chain: QVQLQESGGGLVQAGGSLRLSCAASGNISWGTIMGWYRQAPGKEREFVAAISHGANTNYADSVKGRFTISRDNAKNTVYLQMNSLKPEDTAVYYCAAQSRAGSTRPRYHKYWGQGTQVTVSS
notes: as for B2
As to B16, the half-maximal effective concentration (EC50) with IL21 was found to be 3.73 nM.

B17: CD3D_Nb2.36 (Fc fusion)
chain: QVQLQESGGGLVQAGGSLRLSCAASGSISAYWAMGWYRQAPGKEREFVAAINFGANTYYADSVKGRFTISRDNAKNTVYLQMNSLKPEDTAVYYCAAERDGDYHDYWGQGTQVTVSS
notes: as for B2
Consider B17, for which, in the test with CD3D, the EC50 came to 29.6 nM.

B18: TIGIT_Nb2.81 (Fc fusion)
chain: QVQLQESGGGLVQAGGSLRLSCAASGTISLLEYMGWYRQAPGKEREFVAAITGGSSTNYADSVKGRFTISRDNAKNTVYLQMNSLKPEDTAVYYCAASLVPYDKDNLFFGYWGQGTQVTVSS
notes: as for B2
For B18, the EC50 with TIGIT worked out at 29.8 nM.

B19: CEACAM4_Nb36 (Fc fusion)
chain: QVQLQESGGGLVQAGGSLRLSCAASGNIFLGPYMGWYRQAPGKEREFVASINYGASTNYADSVKGRFTISRDNAKNTVYLQMNSLKPEDTAVYYCAAGYYSNDYYYYEYSYWGQGTQVTVSS
notes: as for B2
Take B19: the EC50 in the test with CEACAM4 turned out to be 15.6 nM.

B20: CCL16_Nb2.5 (Fc fusion)
chain: QVQLQESGGGLVQAGGSLRLSCAASGYIFGVYDMGWYRQAPGKERELVATISAGGTTNYADSVKGRFTISRDNAKNTVYLQMNSLKPEDTAVYYCAAYTDYSPYDGAALVYWGQGTQVTVSS
notes: as for B2
On to B20, for which the EC50 with CCL16 worked out at 1.78 nM.

B21: IL13_Nb2.41 (Fc fusion)
chain: QVQLQESGGGLVQAGGSLRLSCAASGTIFVDEFMGWYRQAPGKEREFVASINDGGSTYYADSVKGRFTISRDNAKNTVYLQMNSLKPEDTAVYYCAVFEPSPDGDPFGDRAWFWYWGQGTQVTVSS
notes: as for B2
On to B21, for which the EC50 in the test with IL13 stood at 1.02 nM.

One may read the EC50 as the concentration that produces a half-maximal response. In general, Kd refers to the equilibrium constant for the complex coming apart.
